Measurements from patent US20220143024A1, “METHODS OF USING IMIPRIDONES” (Board of Regents, The University of Texas System, priority 2019, published 2022).

Columns and labels:
SUCLG2 (human) = SUCLG2 (human) (UniProt Q96I99); test: BioID-MS +ONC201
PYCR2 (human) = PYCR2 (human) (UniProt Q96C36); test: BioID-MS +ONC201
EARS2 (human) = EARS2 (human) (UniProt Q5JPH6); test: BioID-MS +ONC201
LARS2 (human) = LARS2 (human) (UniProt Q15031); test: BioID-MS +ONC201
SSBP1 (human) = SSBP1 (human) (UniProt Q04837); test: BioID-MS +ONC201
AK3 (human) = AK3 (human) (UniProt Q9UIJ7); test: BioID-MS +ONC201
VARS2 (human) = VARS2 (human) (UniProt Q5ST30); test: BioID-MS +ONC201
MRPS23 (human) = MRPS23 (human) (UniProt Q9Y3D9); test: BioID-MS +ONC201
NADKD1 (human) = NADKD1 (human) (UniProt Q4G0N4); test: BioID-MS +ONC201
PITRM1 (human) = PITRM1 (human) (UniProt Q5JRX3); test: BioID-MS +ONC201
NIPSNAP2 (human) = NIPSNAP2 (human) (UniProt O75323); test: BioID-MS +ONC201
CLIC4 (human) = CLIC4 (human) (UniProt Q9Y696); test: BioID-MS +ONC201
ECHS1 (human) = ECHS1 (human) (UniProt P30084); test: BioID-MS +ONC201
ACAD10 (human) = ACAD10 (human) (UniProt Q6JQN1); test: BioID-MS +ONC201
NDUFAF7 (human) = NDUFAF7 (human) (UniProt Q7L592); test: BioID-MS
XPNPEP3 (human) = XPNPEP3 (human) (UniProt Q9NQH7); test: BioID-MS
FASTKD5 (human) = FASTKD5 (human) (UniProt Q7L8L6); test: BioID-MS
PTPMT1 (human) = PTPMT1 (human) (UniProt Q8WUK0); test: BioID-MS
DHTKD1 (human) = DHTKD1 (human) (UniProt Q96HY7); test: BioID-MS
ABHD10 (human) = ABHD10 (human) (UniProt Q9NUJ1); test: BioID-MS
MICU2 (human) = MICU2 (human) (UniProt Q8IYU8); test: BioID-MS
PDE12 (human) = PDE12 (human) (UniProt Q6L8Q7); test: BioID-MS
PDIA3 (human) = PDIA3 (human) (UniProt P30101); test: BioID-MS
PIN1 (human) = PIN1 (human) (UniProt Q13526); test: BioID-MS
WARS2 (human) = WARS2 (human) (UniProt Q9UGM6); test: BioID-MS
MRPS28 (human) = MRPS28 (human) (UniProt Q9Y2Q9); test: BioID-MS
CDK5RAP1 (human) = CDK5RAP1 (human) (UniProt Q96SZ6); test: BioID-MS
COQ8A (human) = COQ8A (human) (UniProt Q8NI60); test: BioID-MS
LYRM4 (human) = LYRM4 (human) (UniProt Q9HD34); test: BioID-MS
MDH2 (human) = MDH2 (human) (UniProt P40926); test: BioID-MS
FECH (human) = FECH (human) (UniProt P22830); test: BioID-MS
NDUFAF2 (human) = NDUFAF2 (human) (UniProt Q8N183); test: BioID-MS
C20orf72 (human) = C20orf72 (human) (UniProt Q9BQP7); test: BioID-MS
MRPL46 (human) = MRPL46 (human) (UniProt Q9H2W6); test: BioID-MS
MRPS16 (human) = MRPS16 (human) (UniProt Q9Y3D3); test: BioID-MS
ALDH2 (human) = ALDH2 (human) (UniProt P05091); test: BioID-MS
MRPL45 (human) = MRPL45 (human) (UniProt Q9BRJ2); test: BioID-MS
TST (human) = TST (human) (UniProt Q16762); test: BioID-MS
MTRF1L (human) = MTRF1L (human) (UniProt Q9UGC7); test: BioID-MS
GFM1 (human) = GFM1 (human) (UniProt Q96RP9); test: BioID-MS
MPST (human) = MPST (human) (UniProt P25325); test: BioID-MS
RTN4IP1 (human) = RTN4IP1 (human) (UniProt Q8WWV3); test: BioID-MS
CLYBL (human) = CLYBL (human) (UniProt Q8N0X4); test: BioID-MS
NARS2 (human) = NARS2 (human) (UniProt Q96I59); test: BioID-MS
PYCR1 (human) = PYCR1 (human) (UniProt P32322); test: BioID-MS
MRPS26 (human) = MRPS26 (human) (UniProt Q9BYN8); test: BioID-MS
ECSIT (human) = ECSIT (human) (UniProt Q9BQ95); test: BioID-MS
CRAT (human) = CRAT (human) (UniProt P43155); test: BioID-MS
C20orf7 (human) = C20orf7 (human) (UniProt Q5TEU4); test: BioID-MS
T1MM44 (human) = T1MM44 (human) (UniProt O43615); test: BioID-MS
COQ6 (human) = COQ6 (human) (UniProt Q9Y2Z9); test: BioID-MS
ATPAF1 (human) = ATPAF1 (human) (UniProt Q5TC12); test: BioID-MS
NDUFAF1 (human) = NDUFAF1 (human) (UniProt Q9Y375); test: BioID-MS
PCK2 (human) = PCK2 (human) (UniProt Q16822); test: BioID-MS
LYRM7 (human) = LYRM7 (human) (UniProt Q5U5X0); test: BioID-MS
PDPR (human) = PDPR (human) (UniProt Q8NCN5); test: BioID-MS

FlagBirA-ClpP (WT) (from UniProt P06709 1-321; Q16740 57-277) (enzyme)
Log2 Fold change (vs control) (SUCLG2 (human)): -3.08 log2 | Log2 Fold change (vs control) (PYCR2 (human)): -0.21 log2 | Log2 Fold change (vs control) (EARS2 (human)): -1.29 log2 | Log2 Fold change (vs control) (LARS2 (human)): -0.14 log2 | Log2 Fold change (vs control) (SSBP1 (human)): 0.07 log2 | Log2 Fold change (vs control) (AK3 (human)): -1.05 log2 | Log2 Fold change (vs control) (VARS2 (human)): -5.52 log2 | Log2 Fold change (vs control) (MRPS23 (human)): -1.58 log2 | Log2 Fold change (vs control) (NADKD1 (human)): -2.04 log2 | Log2 Fold change (vs control) (PITRM1 (human)): -4.25 log2 | Log2 Fold change (vs control) (NIPSNAP2 (human)): -0.31 log2 | Log2 Fold change (vs control) (CLIC4 (human)): -0.49 log2 | Log2 Fold change (vs control) (ECHS1 (human)): -1.49 log2 | Log2 Fold change (vs control) (ACAD10 (human)): -4.09 log2

FlagBirA-ClpP (Y118A) (from UniProt P06709 1-321; Q16740 57-277) (enzyme)
Log2 Fold change (vs control) (NDUFAF7 (human)): 0.04 log2 | Log2 Fold change (vs control) (XPNPEP3 (human)): -0.31 log2 | Log2 Fold change (vs control) (FASTKD5 (human)): 1.05 log2 | Log2 Fold change (vs control) (PTPMT1 (human)): -0.04 log2 | Log2 Fold change (vs control) (DHTKD1 (human)): -0.12 log2 | Log2 Fold change (vs control) (ABHD10 (human)): -0.16 log2 | Log2 Fold change (vs control) (MICU2 (human)): -0.18 log2 | Log2 Fold change (vs control) (PDE12 (human)): 0.03 log2 | Log2 Fold change (vs control) (PDIA3 (human)): -0.41 log2 | Log2 Fold change (vs control) (PIN1 (human)): -3.81 log2 | Log2 Fold change (vs control) (WARS2 (human)): 0.25 log2 | Log2 Fold change (vs control) (MRPS28 (human)): -0.49 log2 | Log2 Fold change (vs control) (CDK5RAP1 (human)): -0.26 log2 | Log2 Fold change (vs control) (COQ8A (human)): -0.67 log2 | Log2 Fold change (vs control) (LYRM4 (human)): 0.52 log2 | Log2 Fold change (vs control) (MDH2 (human)): -0.03 log2 | Log2 Fold change (vs control) (FECH (human)): -0.68 log2 | Log2 Fold change (vs control) (NDUFAF2 (human)): -0.15 log2 | Log2 Fold change (vs control) (C20orf72 (human)): 0.12 log2 | Log2 Fold change (vs control) (MRPL46 (human)): -0.28 log2 | Log2 Fold change (vs control) (MRPS16 (human)): 0.1 log2 | Log2 Fold change (vs control) (ALDH2 (human)): -0.18 log2 | Log2 Fold change (vs control) (MRPL45 (human)): -0.29 log2 | Log2 Fold change (vs control) (TST (human)): -0.51 log2 | Log2 Fold change (vs control) (MTRF1L (human)): 0.51 log2 | Log2 Fold change (vs control) (GFM1 (human)): -0.26 log2 | Log2 Fold change (vs control) (MPST (human)): -1.29 log2 | Log2 Fold change (vs control) (RTN4IP1 (human)): -0.52 log2 | Log2 Fold change (vs control) (CLYBL (human)): -3.17 log2 | Log2 Fold change (vs control) (NARS2 (human)): -0.14 log2 | Log2 Fold change (vs control) (PYCR1 (human)): 1.08 log2 | Log2 Fold change (vs control) (MRPS26 (human)): -0.52 log2 | Log2 Fold change (vs control) (ECSIT (human)): -1.04 log2 | Log2 Fold change (vs control) (CRAT (human)): -3 log2 | Log2 Fold change (vs control) (C20orf7 (human)): -0.06 log2 | Log2 Fold change (vs control) (T1MM44 (human)): -0.12 log2 | Log2 Fold change (vs control) (COQ6 (human)): 0.62 log2 | Log2 Fold change (vs control) (ATPAF1 (human)): 0.59 log2 | Log2 Fold change (vs control) (NDUFAF1 (human)): -4.32 log2 | Log2 Fold change (vs control) (PCK2 (human)): -0.51 log2 | Log2 Fold change (vs control) (LYRM7 (human)): 0.23 log2 | Log2 Fold change (vs control) (PDPR (human)): 0.09 log2
